# Measurements as given in patent US20230144192A1 (Sanofi, published 2023).
# B1: Ab1 (antibody, human IgG4 S228P, kappa)
# heavy: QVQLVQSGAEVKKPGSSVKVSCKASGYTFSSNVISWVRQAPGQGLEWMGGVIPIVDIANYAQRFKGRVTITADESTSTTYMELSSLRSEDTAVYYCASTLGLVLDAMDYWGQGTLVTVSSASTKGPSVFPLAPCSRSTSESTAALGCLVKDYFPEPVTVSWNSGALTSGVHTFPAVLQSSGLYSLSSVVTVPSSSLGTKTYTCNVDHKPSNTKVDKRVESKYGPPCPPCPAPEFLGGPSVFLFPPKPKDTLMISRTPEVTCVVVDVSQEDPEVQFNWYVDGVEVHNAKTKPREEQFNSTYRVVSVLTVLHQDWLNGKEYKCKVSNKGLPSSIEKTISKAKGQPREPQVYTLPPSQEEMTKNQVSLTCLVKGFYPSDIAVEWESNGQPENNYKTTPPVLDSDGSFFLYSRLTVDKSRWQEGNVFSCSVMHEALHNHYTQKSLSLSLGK
# light: ETVLTQSPGTLSLSPGERATLSCRASQSLGSSYLAWYQQKPGQAPRLLIYGASSRAPGIPDRFSGSGSGTDFTLTISRLEPEDFAVYYCQQYADSPITFGQGTRLEIKRTVAAPSVFIFPPSDEQLKSGTASVVCLLNNFYPREAKVQWKVDNALQSGNSQESVTEQDSKDSTYSLSSTLTLSKADYEKHKVYACEVTHQGLSSPVTKSFNRGEC
# notes: Human IgG4 (S228P, Eu numbering) / kappa anti-TGF-beta antibody; also called GC2008; copies: 2 + 2
# Target: FcRn (UniProt P55899 24-297; P61769 21-119, limits assumed)
# Sequence (P55899 24-297 limits assumed, form in doubt, chain 1 of 2): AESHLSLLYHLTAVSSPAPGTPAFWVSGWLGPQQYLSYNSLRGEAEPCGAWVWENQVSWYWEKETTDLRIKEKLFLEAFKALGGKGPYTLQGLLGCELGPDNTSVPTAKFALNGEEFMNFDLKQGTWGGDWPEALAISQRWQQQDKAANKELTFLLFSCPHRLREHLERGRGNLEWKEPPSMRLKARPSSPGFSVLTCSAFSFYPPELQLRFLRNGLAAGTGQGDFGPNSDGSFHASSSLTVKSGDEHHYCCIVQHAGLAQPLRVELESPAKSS
# Sequence (P61769 21-119 limits assumed, form in doubt, chain 2 of 2): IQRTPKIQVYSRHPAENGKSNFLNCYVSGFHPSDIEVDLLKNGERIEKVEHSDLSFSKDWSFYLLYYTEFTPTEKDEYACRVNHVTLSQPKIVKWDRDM
# Assay: method not described; PBPK model input at pH 6.0, source given as 'Unpublished data'
binder,measurement,value
B1,Kd,1.4 µM
